This series concerns the molecule itself. Description: crystal structure; un-tagged MmATD alone; sitting-drop vapor diffusion, reservoir 0.1 M Bicine (pH 8.0) and 15% PEG1500; 1.86 Å; two monomers per asymmetric unit.

B1: Animalia-specific tRNA deacylase from Mus musculus (enzyme)
chain: MADGGRVAQARALLQQCLHARLQVRPADGDAAAQWVEIRRGLVIYVCFFKGADTDLLPKMVNTLLNVKLSETETGKHVSILDLPGDVLIIPQATLGGRVKGRSMQYHSNSGKEEGSELYSQFVSLCEKAVANNTKSVEAGVAVAHGTYGNRQVLKLDTNGPYTHLIEF
notes: ATD (Animalia-specific tRNA deacylase, annotated in databases as probable DTD2) from Mus musculus; un-tagged protein used for crystallisation; gene PCR-amplified from cDNA into pET-28b; Homodimer in the crystal (two monomers per asymmetric unit, 325 residues modelled); also called MmATD; ATD; source: E. coli Rosetta(DE3), purified (cation exchange chromatography, SEC)
As to B1, the binding result is listed as “binds”.

For the origin of these results see publication PMC5802732, “A chiral selectivity relaxed paralog of DTD for proofreading tRNA mischarging in Animalia” (Nature Communications, 2018).
